Experimental data reported in PMC8207774, “NtbHLH1, a JAF13-like bHLH, interacts with NtMYB6 to enhance proanthocyanidin accumulation in Chinese Narcissus” (BMC Plant Biology, 2021).

Biological target: T1, NtbHLH1 (Chinese narcissus (Narcissus tazetta L. …, UniProt A0A517FM44 1-631))
T1 sequence (looked up): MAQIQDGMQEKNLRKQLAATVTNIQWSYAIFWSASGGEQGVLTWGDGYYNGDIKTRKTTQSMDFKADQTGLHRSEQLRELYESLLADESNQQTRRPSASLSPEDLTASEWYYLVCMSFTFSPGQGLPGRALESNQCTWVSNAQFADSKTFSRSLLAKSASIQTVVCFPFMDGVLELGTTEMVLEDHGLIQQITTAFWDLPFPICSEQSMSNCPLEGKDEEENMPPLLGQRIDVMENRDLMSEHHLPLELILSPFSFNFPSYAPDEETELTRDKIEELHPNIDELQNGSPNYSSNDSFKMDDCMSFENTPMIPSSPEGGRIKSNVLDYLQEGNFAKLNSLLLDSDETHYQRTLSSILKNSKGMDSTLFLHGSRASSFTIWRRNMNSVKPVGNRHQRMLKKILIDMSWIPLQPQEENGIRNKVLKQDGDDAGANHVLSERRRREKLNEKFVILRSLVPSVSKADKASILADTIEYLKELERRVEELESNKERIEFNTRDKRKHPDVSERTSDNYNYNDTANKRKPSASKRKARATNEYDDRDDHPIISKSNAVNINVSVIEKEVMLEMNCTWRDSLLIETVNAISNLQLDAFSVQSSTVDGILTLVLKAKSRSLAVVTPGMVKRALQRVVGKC
Test: cell-based or functional assay

B1: NtMYB6 (natural protein, UniProt A0A1U9X216 1-249, looked up)
chain: MGRAPCCSKVGLHRGPWTAREDALLTNYIQCHGEGNWRSLPKNAGLLRCGKSCRLRWMNYLRPDIKRGNIGPEEEDLIIRLHSLLGNRWSIIAGRLPGRTDNEIKNYWNSHLSKKLKKQGIQVRGNLSSKQSKSSKMNNNDNNNNLEKRKNIKETPKIKIHAPKPTRFTRTISQSSSSCQANNVENVTSEDERCDIPWTNAESQDDIFAPGSWNYELFDIDRVYQEYSQLLNGEDDQFPMASFTESVFA
NtDFR promoter activity, dual luciferase assay in N. benthamiana leaves, co-infiltration of NtbHLH1 and NtMYB6 compared to NtMYB6 alone: ~8 fold | NtDFR promoter activity, dual luciferase assay in N. benthamiana leaves, co-infiltration of NtbHLH1 and NtMYB6 compared to the control: ~14 fold
